This passage reports protein stability index results from the supplement of paper PMC10567573.

First the molecules themselves.
B1: ZNF263 (parent)
chain: CSECGESFSRSSRLMSHQRTHTG
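Note: lentivirally expressed fusions sorted by FACS into six bins by GFP to DsRed ratio, PSI derived from sequencing read proportions per bin multiplied by bin number.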

Variants of B1 are the subject of the data set. Nature of the data set: protein stability index of a GFP-peptide fusion (GPS, HEK-293T) (PSI 1-6); higher = more stable. The note with it: c terminus: native.
With CSCCGESFSRSSRLMSHQRTHTG [E3C], the protein stability index was found to be 1.8.
Regarding CSGCGESFSRSSRLMSHQRTHTG [E3G], the protein stability index came to 1.71.
On to CSACGESFSRSSRLMSHQRTHTG [E3A], for which the protein stability index turned out to be 2.37.
With CSFCGESFSRSSRLMSHQRTHTG [E3F] the figure was 3.31.
As for CSVCGESFSRSSRLMSHQRTHTG [E3V], the protein stability index came to 4.21.
With CSWCGESFSRSSRLMSHQRTHTG [E3W] the figure was 3.35; with CSMCGESFSRSSRLMSHQRTHTG [E3M], 2.26; with CSDCGESFSRSSRLMSHQRTHTG [E3D], 2.67.
CSRCGESFSRSSRLMSHQRTHTG [E3R]: the protein stability index was 2.12.
Turning to CSKCGESFSRSSRLMSHQRTHTG [E3K], the protein stability index is 2.68.
With CSSCGESFSRSSRLMSHQRTHTG [E3S] the figure was 1.87; with CSECGESFSTSSRLMSHQRTHTG [R10T], 5.16; with CSECGESFSWSSRLMSHQRTHTG [R10W], 1.15.
Consider CSECGESFSVSSRLMSHQRTHTG [R10V], for which the protein stability index was found to be 3.48.
For the variant CSECGESFSMSSRLMSHQRTHTG [R10M], the protein stability index came to 3.62.
As to CSECGESFSFSSRLMSHQRTHTG [R10F], the protein stability index is 2.51.
Turning to CSECGESFSCSSRLMSHQRTHTG [R10C], the protein stability index was determined as 4.11.
With CSECGESFSNSSRLMSHQRTHTG [R10N], the protein stability index turned out to be 4.99.
Consider CSECGESFSQSSRLMSHQRTHTG [R10Q], for which the protein stability index came to 3.85.
Consider CSECGESFSESSRLMSHQRTHTG [R10E], for which the protein stability index stood at 5.27.
Then CSECGESFSLSSRLMSHQRTHTG [R10L], with 3.71.
Then CSECGESFSASSRLMSHQRTHTG [R10A], with 2.98.
Consider CSECGESFSSSSRLMSHQRTHTG [R10S], for which the protein stability index stood at 5.28.
On to CSECGESFSISSRLMSHQRTHTG [R10I], for which the protein stability index was found to be 2.95.
CSECGESFSDSSRLMSHQRTHTG [R10D]: the protein stability index stood at 5.6.
For CSECGESFSPSSRLMSHQRTHTG [R10P], the protein stability index turned out to be 2.
CSECGESFSYSSRLMSHQRTHTG [R10Y]: the protein stability index came to 2.83.
For the variant CSECGESFSKSSRLMSHQRTHTG [R10K], the protein stability index is 2.68.
With CSECGESFSGSSRLMSHQRTHTG [R10G] the figure was 2.95; with CSECGESFSHSSRLMSHQRTHTG [R10H], 4.29; with CQECGESFSRSSRLMSHQRTHTG [S2Q], 2.84.
For the variant CDECGESFSRSSRLMSHQRTHTG [S2D], the protein stability index was determined as 2.99.
As to CVECGESFSRSSRLMSHQRTHTG [S2V], the protein stability index amounted to 3.85.
Turning to CEECGESFSRSSRLMSHQRTHTG [S2E], the protein stability index was 3.24.
CRECGESFSRSSRLMSHQRTHTG [S2R]: the protein stability index was found to be 2.92.
Then CWECGESFSRSSRLMSHQRTHTG [S2W], with 2.21.
Consider CGECGESFSRSSRLMSHQRTHTG [S2G], for which the protein stability index turned out to be 2.86.
CYECGESFSRSSRLMSHQRTHTG [S2Y]: the protein stability index came out at 2.22.
Then CFECGESFSRSSRLMSHQRTHTG [S2F], with 1.91.
As to CHECGESFSRSSRLMSHQRTHTG [S2H], the protein stability index turned out to be 2.35.
Take CCECGESFSRSSRLMSHQRTHTG [S2C]: the protein stability index is 1.79.
For CNECGESFSRSSRLMSHQRTHTG [S2N], the protein stability index was determined as 2.62.
On to CMECGESFSRSSRLMSHQRTHTG [S2M], for which the protein stability index stood at 3.38.
Then CIECGESFSRSSRLMSHQRTHTG [S2I], with 2.77.
CAECGESFSRSSRLMSHQRTHTG [S2A]: the protein stability index came to 2.4.
With CTECGESFSRSSRLMSHQRTHTG [S2T] the figure was 2.54.
On to CLECGESFSRSSRLMSHQRTHTG [S2L], for which the protein stability index is 2.67.
CKECGESFSRSSRLMSHQRTHTG [S2K]: the protein stability index is 2.51.
As for CPECGESFSRSSRLMSHQRTHTG [S2P], the protein stability index amounted to 4.06.
In the case of DSECGESFSRSSRLMSHQRTHTG [C1D], the protein stability index turned out to be 1.84.
Consider NSECGESFSRSSRLMSHQRTHTG [C1N], for which the protein stability index amounted to 2.31.
For the variant ASECGESFSRSSRLMSHQRTHTG [C1A], the protein stability index worked out at 2.23.
Then GSECGESFSRSSRLMSHQRTHTG [C1G], with 2.36.
On to KSECGESFSRSSRLMSHQRTHTG [C1K], for which the protein stability index is 2.05.
Regarding VSECGESFSRSSRLMSHQRTHTG [C1V], the protein stability index turned out to be 1.59.
HSECGESFSRSSRLMSHQRTHTG [C1H]: the protein stability index came out at 2.11.
Take PSECGESFSRSSRLMSHQRTHTG [C1P]: the protein stability index was determined as 3.14.
Regarding ESECGESFSRSSRLMSHQRTHTG [C1E], the protein stability index came to 3.15.
Then WSECGESFSRSSRLMSHQRTHTG [C1W], with 1.56; and YSECGESFSRSSRLMSHQRTHTG [C1Y], with 1.9.
SSECGESFSRSSRLMSHQRTHTG [C1S]: the protein stability index was found to be 2.14.
Consider MSECGESFSRSSRLMSHQRTHTG [C1M], for which the protein stability index is 2.22.
Consider QSECGESFSRSSRLMSHQRTHTG [C1Q], for which the protein stability index was determined as 2.46.
With RSECGESFSRSSRLMSHQRTHTG [C1R], the protein stability index was found to be 2.32.
With ISECGESFSRSSRLMSHQRTHTG [C1I], the protein stability index was 2.1.
LSECGESFSRSSRLMSHQRTHTG [C1L]: the protein stability index was 1.75.
Consider FSECGESFSRSSRLMSHQRTHTG [C1F], for which the protein stability index turned out to be 1.49.
For TSECGESFSRSSRLMSHQRTHTG [C1T], the protein stability index amounted to 2.06.
Take CSECGESFSRPSRLMSHQRTHTG [S11P]: the protein stability index stood at 4.22.
As for CSECGESFSRCSRLMSHQRTHTG [S11C], the protein stability index was 3.34.
With CSECGESFSRKSRLMSHQRTHTG [S11K] the figure was 3.55; with CSECGESFSRISRLMSHQRTHTG [S11I], 3.98.
For CSECGESFSRNSRLMSHQRTHTG [S11N], the protein stability index turned out to be 2.31.
Take CSECGESFSRMSRLMSHQRTHTG [S11M]: the protein stability index turned out to be 4.29.
Consider CSECGESFSRGSRLMSHQRTHTG [S11G], for which the protein stability index was determined as 3.13.
Consider CSECGESFSRFSRLMSHQRTHTG [S11F], for which the protein stability index stood at 3.14.
With CSECGESFSRASRLMSHQRTHTG [S11A], the protein stability index was 4.04.
On to CSECGESFSRHSRLMSHQRTHTG [S11H], for which the protein stability index is 3.47.
As for CSECGESFSRDSRLMSHQRTHTG [S11D], the protein stability index stood at 2.1.
On to CSECEESFSRSSRLMSHQRTHTG [G5E], for which the protein stability index is 1.41.
Then CSECLESFSRSSRLMSHQRTHTG [G5L], with 1.92; and CSECSESFSRSSRLMSHQRTHTG [G5S], with 1.69.
Regarding CSECWESFSRSSRLMSHQRTHTG [G5W], the protein stability index worked out at 1.88.
Take CSECFESFSRSSRLMSHQRTHTG [G5F]: the protein stability index came to 3.91.
Take CSECTESFSRSSRLMSHQRTHTG [G5T]: the protein stability index stood at 2.3.
Consider CSECQESFSRSSRLMSHQRTHTG [G5Q], for which the protein stability index was found to be 2.03.
For CSECIESFSRSSRLMSHQRTHTG [G5I], the protein stability index was 2.23.
Turning to CSECPESFSRSSRLMSHQRTHTG [G5P], the protein stability index amounted to 1.89.
With CSECCESFSRSSRLMSHQRTHTG [G5C] the figure was 2.33.
As to CSECRESFSRSSRLMSHQRTHTG [G5R], the protein stability index stood at 1.4.
For the variant CSECVESFSRSSRLMSHQRTHTG [G5V], the protein stability index was found to be 1.03.
Regarding CSECHESFSRSSRLMSHQRTHTG [G5H], the protein stability index turned out to be 1.64.
As to CSECDESFSRSSRLMSHQRTHTG [G5D], the protein stability index is 1.79.
Consider CSECYESFSRSSRLMSHQRTHTG [G5Y], for which the protein stability index came to 2.33.
For CSECAESFSRSSRLMSHQRTHTG [G5A], the protein stability index worked out at 2.77.
With CSECNESFSRSSRLMSHQRTHTG [G5N], the protein stability index worked out at 2.2.
Turning to CSECKESFSRSSRLMSHQRTHTG [G5K], the protein stability index turned out to be 1.29.
